{"source": "paper PMC3376194", "proteins": {"B1": {"name": "PGHS-1 R53H variant (Homo sapiens; R53H) (protein)", "chain": "ADPGAPTPVNPCCYYPCQHQGICVRFGLDHYQCDCTRTGYSGPNCTIPGLWTWLRNSLRPSPSFTHFLLTHGRWFWEFVNATFIREMLMRLVLTVRSNLIPSPPTYNSAHDYISWESFSNVSYYTRILPSVPKDCPTPMGTKGKKQLPDAQLLARRFLLRRKFIPDPQGTNLMFAFFAQHFTHQFFKTSGKMGPGFTKALGHGVDLGHIYGDNLERQYQLRLFKDGKLKYQVLDGEMYPPSVEEAPVLMHYPRGIPPQSQMAVGQEVFGLLPGLMLYATLWLREHNRVCDLLKAEHPTWGDEQLFQTTRLILIGETIKIVIEEYVQQLSGYFLQLKFDPELLFGVQFQYRNRIAMEFNHLYHWHPLMPDSFKVGSQEYSYEQFLFNTSMLVDYGVEALVDAFSRQIAGRIGGGRNMDHHILHVAVDVIRESREMRLQPFNEYRKRFGMKPYTSFQELVGEKEMAAELEELYGDIDALEFYPGLLLEKCHPNSIFGESMIEIGAPFSLKGLLGNPICSPEYWKPSTFGGEVGFNIVKTATLKKLVCLNTKTCPYVSFRVPDASQDDGPAVERPSTEL"}}, "substrate": "CCCCC/C=C\\C/C=C\\C/C=C\\C/C=C\\CCCC(=O)O", "test": "cells, lysate or membranes named", "settings": "other: R53H, 0.025% Tween 20, 37 °C"}
{"protein": "B1", "values": [{"measurement": "Km", "result": "1.9 ± 0.2", "unit": "µM"}]}
